Like-named read-outs stand apart in the source and are kept apart here. Where a SMILES comes first, the peptide text is derived from it. Bridges are numbered along the chain shown (N, C = ends). Where no end group is shown, it is not given here. The star is where a group is joined. DOTA = O=C(O)CN1CCN(CC(=O)O)CCN(CC(=O)*)CCN(CC(=O)O)CC1
Key:
[1] = test system: integrin receptors expressed on U87MG glioblastoma cells; experiment: Competition binding with 125I-echistatin to U87MG cells; parameters: species or system human; conditions: competition with 0.06 nM 125I-echistatin, 2×10^5 U87MG cells, IBB, room temperature, 3 h, gamma counting; average ± SD of experiments on three separate days
Description: Competition binding assays were performed as previously described, [60] to measure the relative binding affinities of engineered knottin peptides and echistatin. Briefly, 2×10^5 U87MG or K562 cells were incubated with 0.06 nM ^125I-labeled echistatin and varying concentrations of peptides in IBB at room temperature for 3 h. The cell-bound radioactivity remaining after washing was determined by gamma-counting. Half-maximal inhibitory concentration (IC50) values were determined by non-linear regression analysis using KaleidaGraph software (Synergy Software), and are presented as the average of experiments performed on three separate days.

[2] = Biodistribution in U87MG xenograft mice (gamma counting); format: in vivo, mouse; conditions: female, athymic nude (nu/nu), mouse, iv, total radioactivity; for tissue to tissue ratio at 4 h: U87MG xenograft mice
Description: (§1) Animal procedures were carried out according to a protocol approved by Stanford University Administrative Panels on Laboratory Animal Care (APLAC Protocol 11580). U87MG glioblastoma cells were maintained at 37°C/5% CO2 in Dulbecco's Modified Eagle Medium, 10% heat-inactivated fetal bovine serum, and penicillin-streptomycin (all from Invitrogen). Female athymic nude mice (nu/nu), obtained at 4–6 weeks of age (Charles River Laboratories, Inc., Wilmington, MA), were injected subcutaneously in the right or left shoulder with ∼10^7 U87MG cells suspended in 100 µL of PBS. Mice were used for in vivo imaging studies when their tumors reached approximately 10 millimeters in diameter.
(§2) Anesthetized nude mice bearing U87MG tumor xenografts were injected with ∼50–100 µCi (∼0.25–0.5 nmol) of ^64Cu-DOTA-knottin 3-4A via the tail vein, and were euthanized at 1, 4, and 24 h post injection. Blood, bone, brain, heart, kidney, liver, lung, muscle, pancreas, skin, spleen, and tumor tissue were removed and weighed, and their radioactivity levels (counts per minute) were measured by gamma counting. The radioactivity uptake in the tumor and normal tissue was reported as the percent injected dose per gram (%ID/g) of tissue and represent the mean and standard deviation of experiments performed on three mice. For each mouse, the activity of tissue samples was calibrated against a pre-measured aliquot of the radiotracer and normalized to the whole bodyweight and to the residual radioactivity present in the tail. To test integrin-targeting specificity, U87MG tumor-bearing mice (n = 3) were co-injected with ^64Cu-DOTA-knottin 3-4A and 330 µg (∼0.5 µmol) of unlabeled c(RGDyK), and biodistribution of the radiolabeled peptide was determined 1 h after injection.

U87MG tumor xenografts [3] = experiment: as above; format: in vivo, mouse
Description: as §1, §2

[4] = In vivo metabolic stability in U87MG xenograft mice (radio-HPLC); parameters: species or system mouse
Description: (§3) Aliquots containing up to 400 µCi of ^64Cu-DOTA-knottin 3-4A were incubated in 50% mouse serum for up to 24 h. At various time points, samples were mixed with an equal volume of 99.9% water/0.1% TFA, further acidified with ∼1% (v/v) TFA, and centrifuged to remove precipitants. Soluble fractions were filtered with a 0.2 µm microcentrifuge filter (Corning Costar Spin-X filter) and analyzed by reversed-phase radio-HPLC using a Vydac C18 column. For metabolic stability analysis, anesthetized nude mice bearing U87MG tumor xenografts were injected with 200–400 µCi of ^64Cu-DOTA-knottin 3-4A via the tail vein, and were euthanized at 1 h post injection. Tumor, kidney, and liver tissues were homogenized with a mortar/pestle in 1 ml DMF. The lysates were acidified, centrifuged, and filtered using a 0.2 µm Costar Spin-X microcentrifuge filter to isolate soluble metabolites. Filtrates were injected onto a Vydac C18 column and analyzed by reversed-phase HPLC. Fractions were collected every 1 min and analyzed by gamma counting to determine the counts per minute (cpm). Urine samples were collected 1 h post injection and were also analyzed by radio-HPLC. The intact radiotracer elutes at approximately 15 min, and the major hydrophilic metabolites and free copper elute with the column dead volume.

U87MG tumor xenografts [5] = experiment: MicroPET imaging in U87MG xenograft mice; format: in vivo, mouse
Description: as §1
U87MG tumor-bearing mice (n = 3 or more for each probe) were injected with ∼100 µCi (∼0.5 nmol) of probe via the tail vein and imaged with a microPET R4 rodent model scanner (Siemens Medical, Knoxville, TN) using 5 min static scans. Images were reconstructed by a two-dimensional ordered expectation maximum subset algorithm and calibrated as previously described. ROIs were drawn over the tumor on decay-corrected whole body images using ASIPro VM software (Siemens Medical). ROIs were converted to counts/g/min, and %ID/g values were determined assuming a tissue density of 1 g/mL. No attenuation correction was performed. For the blocking experiments, mice were co-injected with 330 µg (∼0.5 µmol) of unlabeled c(RGDyK), a pentapeptide that binds to αvβ3 and αvβ5 integrins, [62] at a similar receptor binding site as the engineered knottin peptides.

[6] = Serum stability in mouse serum (radio-HPLC); format: in vitro ADME; conditions: 50% mouse serum, 37°C, reversed-phase radio-HPLC (Vydac C18), area under the entire peak
Description: as §3

[7] = test system: MDA-MB-435 melanoma xenograft; experiment: Tumor uptake in MDA-MB-435 melanoma xenograft model; format: in vivo; conditions: lower αvβ3 integrin levels, data not shown
[8] = test system: integrin receptors expressed on U87MG glioblastoma cells; conditions: read-out: IC50, competition binding of 125I-echistatin to U87MG cells; cited from earlier work
Description: The engineered knottin peptides were tested for their ability to compete with ^125I-echistatin for binding to integrin receptors expressed on U87MG glioblastoma cells, which express ∼10^5 αvβ3 integrin receptors per cell. Echistatin, a polypeptide found in snake venom, binds to multiple integrin receptors with high affinity, [27] and was used as a positive control. […] Both engineered loops were capable of binding to integrins with high affinity, as confirmed by measurements performed with knottins containing scrambled RDG control loops. […] In one example, c(RGDyK) dimers and higher order oligomers have been created by chemical conjugation through addition of a glutamate branching residue.

[9] = U87MG xenograft mice, summary of imaging and biodistribution

## CSCC[C@@H]1NC(=O)[C@H](CC(=O)O)NC(=O)CNC(=O)[C@H](CCCNC(=N)N)NC(=O)[C@H](C)NC(=O)[C@H](CCC(=O)O)NC(=O)[C@H](CCCNC(=N)N)NC(=O)[C@@H]2CSSC[C@@H]3NC(=O)[C@H](CO)NC(=O)[C@H]([C@@H](C)O)NC(=O)[C@@H]4CCCN4C(=O)[C@H](C)NC(=O)[C@H](Cc4c[nH]c5ccccc45)NC(=O)[C@H](CC(=O)O)NC(=O)CNC(=O)[C@H](CCCNC(=N)N)NC(=O)CNC(=O)[C@H](CCC(N)=O)NC(=O)[C@@H]4CCCN4C(=O)[C@@H](NC(=O)CNC(=O)CN4CCN(CC(=O)O)CCN(CC(=O)O)CCN(CC(=O)O)CC4)CSSC[C@H](NC(=O)CNC(=O)[C@H](C)NC(=O)[C@H](CC(C)C)NC(=O)[C@H](CSSC[C@@H](C(=O)NCC(N)=O)NC(=O)[C@H]([C@@H](C)O)NC(=O)[C@H](CCCNC(=N)N)NC(=O)[C@@H]4CCCN4C1=O)NC(=O)[C@H](CC(=O)O)NC(=O)[C@H](CO)NC(=O)[C@H](CC(=O)O)NC(=O)[C@H](CCC(N)=O)NC(=O)[C@H](CO)NC3=O)C(=O)N[C@@H](C(C)C)C(=O)N2 [DOTA-3-4A] ({DOTA}-GCPQGRGDWAPTSCSQDSDCLAGCVCREARGDMPRTCG-NH2; disulfide 2-24, 14-26, 20-37)
[1]
  IC50: 8 ± 1 nM

## CSCC[C@@H]1NC(=O)[C@H](CC(=O)O)NC(=O)CNC(=O)[C@H](CCCNC(=N)N)NC(=O)[C@H](C)NC(=O)[C@H](CCC(=O)O)NC(=O)[C@H](CCCNC(=N)N)NC(=O)[C@@H]2CSSC[C@@H]3NC(=O)[C@H](CO)NC(=O)[C@H]([C@@H](C)O)NC(=O)[C@@H]4CCCN4C(=O)[C@H](C)NC(=O)[C@H](Cc4c[nH]c5ccccc45)NC(=O)[C@H](CC(=O)O)NC(=O)CNC(=O)[C@H](CCCNC(=N)N)NC(=O)CNC(=O)[C@H](CCC(N)=O)NC(=O)[C@@H]4CCCN4C(=O)[C@@H](NC(=O)CNC(=O)CN4CCN(CC(=O)O)CCN(CC(=O)O)CCN(CC(=O)O)CC4)CSSC[C@H](NC(=O)CNC(=O)[C@H](C)NC(=O)[C@H](CC(C)C)NC(=O)[C@H](CSSC[C@@H](C(=O)NCC(N)=O)NC(=O)[C@H]([C@@H](C)O)NC(=O)[C@H](CCCNC(=N)N)NC(=O)[C@@H]4CCCN4C1=O)NC(=O)[C@H](CC(=O)O)NC(=O)[C@H](CO)NC(=O)[C@H](CC(=O)O)NC(=O)[C@H](CCC(N)=O)NC(=O)[C@H](CO)NC3=O)C(=O)N[C@@H](C(C)C)C(=O)N2 [^64Cu-DOTA-knottin 3-4A, metal not drawn] ({DOTA}-GCPQGRGDWAPTSCSQDSDCLAGCVCREARGDMPRTCG-NH2; disulfide 2-24, 14-26, 20-37)
[2]; calculated from 1 h and 24 h tumor radioactivity, read-out: radiotracer washout rate from tumor, biodistribution
  tumor washout rate: 0.06 %ID/g
[2]; tumor / muscle, read-out: tumor-to-muscle (T/M) ratio, 4 h post injection
  tissue to tissue ratio at 4 h: 31 ± 7
[2]; tumor / whole blood, read-out: tumor-to-blood (T/B) ratio, 4 h post injection
  tissue to tissue ratio at 4 h: 27 ± 3
U87MG tumor xenografts [3]; U87MG xenograft mice
  muscle radioactivity, biodistribution: < 0.4 %ID/g
U87MG tumor xenografts [3]; U87MG xenograft mice, 1-24 h
  heart radioactivity, biodistribution, throughout the study: ~0.3 %ID/g
U87MG tumor xenografts [3]; U87MG xenograft mice, n = 3
  liver radioactivity, biodistribution, 1 h post injection: ~1 %ID/g
  liver radioactivity, biodistribution, 24 h post injection: ~2 %ID/g
  lung radioactivity, biodistribution, 1 h post injection: ~1 %ID/g
  lung radioactivity, biodistribution, 24 h post injection: ~0.6 %ID/g
U87MG tumor xenografts [3]; U87MG xenograft mice, n = 3, mean ± SD
  kidney radioactivity, biodistribution, 24 h post injection: 2.67±0.22 %ID/g
U87MG tumor xenografts [3]; U87MG xenograft nude mice, gamma counting, n = 3, mean ± SD
  tumor uptake, biodistribution, 24 h post injection: 2.56±0.40 %ID/g
U87MG tumor xenografts [3]; U87MG xenograft nude mice, tail vein ∼50–100 µCi, gamma counting, n = 3, mean ± SD
  tumor uptake, biodistribution, 1 h post injection: 3.92±0.70 %ID/g
U87MG tumor xenografts [3]; co-injection of 1000-fold molar excess of unlabeled c(RGDyK) (330 µg), n = 3, p<0.05
  tumor uptake, biodistribution, 1 h post injection, blocked: 0.66±0.17 %ID/g
[4]; U87MG xenograft mice, tail vein 200–400 µCi, liver homogenate in DMF, reversed-phase HPLC and gamma counting
  intact radiotracer recoverable from liver, 1 h post injection: < 40%
[4]; U87MG xenograft mice, tail vein 200–400 µCi, tumor homogenate in DMF, reversed-phase HPLC and gamma counting
  intact radiotracer recoverable from tumor, 1 h post injection: < 40%
[4]; kidney homogenate, radio-HPLC, result in words
  metabolic stability, kidneys, 1 h post injection: a hydrophilic metabolite (or free copper) is responsible for the majority of the radioactive signal
[4]; urine samples, radio-HPLC, result in words
  metabolic stability, urine, 1 h post injection: intact knottin radiotracer is excreted through the bladder
U87MG tumor xenografts [5]; U87MG xenograft mice
  kidney uptake, microPET, 1 h post injection: 10-12 %ID/g
  kidney uptake, microPET, 24 h post injection: 3–4 %ID/g
U87MG tumor xenografts [5]; U87MG xenograft mice, 1-24 h
  liver uptake, microPET, throughout the imaging study: ~2 %ID/g
U87MG tumor xenografts [5]; [9]
  kidney uptake, 1−4 h post-injection (summary in discussion): 8–12 %ID/g
  kidney uptake, 24 h (summary in discussion): 2–4 %ID/g
  liver uptake (summary in discussion): 1–2 %ID/g
U87MG tumor xenografts [5]; U87MG xenograft nude mice, tail vein ∼100 µCi, n = 3, mean ± SD
  tumor uptake, microPET, 1 h post injection: 3.51±0.83 %ID/g
U87MG tumor xenografts [5]; U87MG xenograft nude mice, tail vein, n = 3, mean ± SD
  tumor uptake, microPET, 24 h post injection: 1.97±0.24 %ID/g
U87MG tumor xenografts [5]; co-injection of 1000-fold molar excess of unlabeled c(RGDyK) (330 µg), p<0.05
  tumor uptake, microPET, 1 h post injection, blocked: 0.53± 0.03 %ID/g
[6]; 4 h, read-out: intact probe remaining in serum, 4 h
  remaining at 4 h: 55%
[6]; 24 h
  intact probe remaining in serum, 24 h: ~30%
[6]; 24 h, read-out: intact probe remaining in serum, 24 h
  remaining at 24 h: 30%
[7]
  tumor uptake, 1 h post injection: 0.82±0.05 %ID/g

## ECESGPCCRNCKFLKEGTICKRARGDDMDDYCNGKTCDCPRNPHKGPAT (disulfide 2-11, 7-32, 8-37, 20-39 (inferred)) [Echistatin, reference compound]
[1]
  IC50: 4.9 ± 0.1 nM

## c(RGDyK)
[8]
  IC50: 203 ± 32 nM
